A short description of this data set: soluble on expression in E. coli; label from the status in PepcDB or PDB records.
On to “MGSDKIHHHHHHMHTGPTVFKQLLQFLPRYEFNLCVRRHRGEYREKKFSTYDQFLCLAYAQMAGRESLRDIETCLNSHQEKLYHIGFRGDVSRTTLADANERRDWRIFQDFGHVLIGIAQQLYQADAISVELTQPLYAFDSTTIDLCLTLFPWAEFRKTKAAVKMHTLIDLRGPIPTWVTITTGKVHDVRMLDHLPVAKDAIYTMDRGYVDFARLHSIHKQGAFFVVRAKDNLKCQRLYSHPKDKESGVRADQIITLVTQKSKKGYPEKLRRVSYVDKERNKRLVFLTNNFEIPAATVAAIYKQRWQVELFFKWIKQHLRIKSFIGTSVNAVKSQIWVALCIYLLVAITKKKLGVPCSLYTFLQILEVNLFEKKPISSLVAEALKRNADYPERNQLNLFNY”, for which the “soluble on expression in E. coli” value was “not soluble”. With “GIDPFTKMGGDRRPITILTSDLRGFTSTSEGLNPEEVVKVLNIYFGKMADVITHHGGTIDEFMGDGILVLFGAPTSQQDDALRAVACGVEMQLALREVNQQVTGLGLQPLEMGIGINTGEVVVGNIGSEKRTKYGVVGAQVNLTYRIESYTTGGQIFISSTTLEAAGDRVHVNGNRTVQPKGVKDPVVIWDVAGVGEPYNLSLAVEEQ”, the “soluble on expression in E. coli” value was “soluble”. Under “SRRRPLSCDAASQAGSNYPRCWNCGGPWGPGREDRFFCPQCRALQAPDPTRDYFSLMDCNRSFRVDTAKLQHRYQQLQRLVHPDFFSQRSQTEKDFSEKHSTLVNDAYKTLLAPLSRGLYLLKLHGIEIPERTDYEMDRQFLIEIMEINEKLAEAESEAAMKEIESIVKAKQKEFTDNVSSAFEQDDFEEAKEILTKMRYFSNIEEKIKLKKIPL” stands “soluble”; under “QMSLEGTEKASWLGEQPQFWSKTQVLDWISYQVEKNKYDASAIDFSRCDMDGATLCNCALEELRLVFGPLGDQLHAQLRDLTSSS”, “soluble”. Under “MKSEILQQIKQYETIILHRHVRPDPDAYGSQMGLAEIIRASFPEKKVYSVGNDEVSLQFLGAVDEIADEVYKDALVIVCDTANQERVSDVRFSSGQKLIKIDHHPNDDAYGDLLWVDTTASSCSEMIVAFWETFSDELILNETAARLLYAGIVGDTGRFLYPSTTEETLRLSAHLVTFPFDRPALYRELYELPKNTVKLSGYILQNFVMDENGAATVYLSDTLLREFEVDPRDASALVSCIENVEGIKAWIMFIQEGPVFRARLRSKGPVINELAKEYGGGGHPLASGATLHNEEEIKEMTVKLARICAAKLEHHHHHH” stands “soluble”; under “MSLKSDKDHSVNINARGSFNDRADEISDAEQYGNRLSLAYQGKFLEDTLGVAVGYAHLYQPYVASQFIGLRFNDANEDVNGDGVKEAISEGFELQQKGGDDTRDGYMAAIHWQPTDNFSVKGDLFHSKFTSENFARGFRVKSLKNGTISDAVVESGSMTGGTVSTDGTDNFAVFVVNDNDSKYSELTSGSFNVEWNNGGALTVAADVSYSKADGEFVNGGTRAVLYDDIGNEVRSAESVTYKLNGLSPADISFANDYTNTATLGLKEVGMWPYNQQNDLVAYKLDFNYALDMGFVSSVDFGVRYAEREFNAQRSQAGYGFEYGKNPSNQPVLALNGDMAKVVDFGGELSGYPSFLAIDFNKAIELVNAQLAATGQSPFTPTANWSNNWTMIQSGAVNEDVLAGYVQANLDFDIGDIKVTGNLGVRVVNTDQSSTGLQQVGYGLGEAITDELGVVSKDYIRNEVGKTYTDYLPSLNLTFHLTENDQLRFAAASVMSRPPINKLKSGMGSWYDDSATPGYKKYNAWGNTSPLLDPFYADQYDLSYEHFFEESEGAVVVALFYKDIKSFINDFTIQPFDFEANGFIVPDTIIDNGVEFPVIKNEGQYQTAINNDKGGYIRGIELGYTQIFDFLPSPLDGLGFTGSYSYSDSEVELTTDLSGSNLIMPLPGEGHHHHHH”, “not soluble”; under “TGILLANLGTPDAPTPEAVKRYLKQFLSDRRVVDTSRLLWWPLLRGVILPLRSPRVAKLYASVWMEDGSPLMVYSRQQQQALAQRLPDTPVALGMSYGSPSLESSVDELLAEHVDHIVVLPLYPQFSCSTVGAVWDELARILARKRSIPGISFIRDYADNHDYINALANSVRASFAKHGEPDLLLLSYHGIPQRYADEGDDYPQRCRTTTRELASALGMVPEKVMMTFQSRFGREPWLMPYTDETLKMLGEKGVGHIQVMCPGFAADCLETLEEIAEQNREVFLGAGGKKYEYIPALNATPEHIEMMANLV”, “not soluble”. Under “MYGKLNDLLEDLQEVLKHVNQHWQGGQKNMNKVDHHLQNVIEDIHDFMQGGGSGGKLQEMMKEFQQVLDEIKQQLQGGDNSLHNVHENIKEIFHHLEELVHR” stands “soluble”. With “MLEKLWPFGRSRVRKAVEEALEKAFQDVGEVLEPLSELSEHEDHYLLRVEVPGLGPENLEVRLEGDQLVIEGEKREEKRAKHLAEIVYGRIYRAYLLPKDAKKEGIEARLAKGVLEVRIPREKRPEEPPVRIPIQES”, the “soluble on expression in E. coli” value is “soluble”. For “METSKEFEFRPAKETSRSKSPGGIVGRLSNFARNKARHSLSEKGSNSVGGSGGAGFDKPRKDLLKEFHKCKEAQDQRLDLSSIEITSIPSPIKELTQLTELFLYKNKLTCLPTEIGQLVNLKKLGLSENALTSLPDSLASLESLETLDLRHNKLTEVPSVIYKIGSLETLWLRYNRIVAVDEQIGNLSKLKMLDVRENKIRELPSAIGKLTSLVVCLVSYNHLTRVPEEIGDCHSLTQLDLQHNDLSELPYSIGKLVNLVRIGIRYNKIRCIPSELESCQQLEEFIVESNHLQLLPPNLLTMLPKIHTVNLSRNELTAFPAGGPQQFVSTVTINMEHNQISKIPIGIFSKATRLTKLNLKENELVSLPLDMGSWTSITELNLSTNQLKVLPEDIEKLVNLEILVLSNNQLKKLPNQIGNLNKLRELDLEENELETVPTEIGFLQHLTKLWVQSNKILTLPRSIGNLCSLQDLRLGENNLTAIPEEIGHLDSLKSLYLNDNSSLHNLPFELALCQSLEIMSIENSPLSQIPPEITAGGPSLVIQYLKMQGPYRGVVMNSQ”, the “soluble on expression in E. coli” value was “not soluble”. Under “MGSDKIHHHHHHMPLPENSVVEKNILNPEAVAEALERAMNLANPQTTHAAIAVPTSTVIHKTIEMDADMSDDEREVQIRVDAEQYIPFPLDEVSLDFEVLPDRLANPNRVNVLLVATRTENVETRVEVLELADLNPKLADVESYAVERAFSVFADSLPMGANTIGILDIGHTMTTLSVMQNGKIIYTREQVFGGKQLTLEIQSRYGLSLEEASRAKKDRSLPDDYEIEVLDPFLDAVVQQAARSLQFFFSSSQFNEIDHILLAGGNANIPGLAKLLQQKLGYRVTIANPFLQMGFSPQVDVQKIENDASSLMVACGLALRSFD” stands “not soluble”; under “MFHLRTCAAKLRPLTASQTVKTFSQNRPAAARTFQQIRCYSAPVAAEPFLSGTSSNYVEEMYCAWLENPKSVHKSWDIFFRNTNAGAPPGTAYQSPLPLSRGSLAAVAHAQSLVEAQPNVDKLVEDHLAVQSLIRAYQIRGHHVAQLDPLGILDADLDSSVPADIISSTDKLGFYGLDESDLDKVFHLPTTTFIGGQESALPLREIIRRLEMAYCQHIGVEFMFINDLEQCQWIRQKFETPGIMQFTNEEKRTLLARLVRSTRFEEFLQRKWSSEKRFGLEGCEVLIPALKTIIDKSSENGVDYVIMGMPHRGRLNVLANVIRKELEQIFCQFDSKLEAADEGSGDVKYHLGMYHRRINRVTDRNITLSLVANPSHLEAADPVVMGKTKAEQFYCGDTEGKKVMSILLHGDAAFAGQGIVYETFHLSDLPSYTTHGTVHVVVNNQIGFTTDPRMARSSPYPTDVARVVNAPIFHVNSDDPEAVMYVCKVAAEWRSTFHKDVVVDLVCYRRNGHNEMDEPMFTQPLMYKQIRKQKPVLQKYAELLVSQGVVNQPEYEEEISKYDKICEEAFARSKDEKILHIKHWLDSPWPGFFTLDGQPRSMSCPSTGLTEDILTHIGNVASSVPVENFTIHGGLSRILKTRGEMVKNRTVDWALAEYMAFGSLLKEGIHIRLSGQDVERGTFSHRHHVLHDQNVDKRTCIPMNHLWPNQAPYTVCNSSLSEYGVLGFEAGLRMASPNALVLWEAQFGDFHNTAQCIIDQFICPGQAKWVRQNGIVLLLPHGMEGMGPEHSSARPERFLQMCNDDPDVLPDLKEANFDINQLYDCNWVVVNCSTPGNFFHVLRRQILLPFRKPLIIFTPKSLLRHPEARSSFDEMLPGTHFQRVIPEDGPAAQNPENVKRLLFCTGKVYYDLTRERKARDMVGQVAITRIEQLSPFPFDLLLKEVQKYPNAELAWCQEEHKNQGYYDYVKPRLRTTISRAKPVWYAGRNPAAAPATGNKKTH”, “soluble”. Under “MSLKKSLATIRAEERNYFQSPKWFCDFVEKPIQGLEREEGVHRRDPSSIIKVDNLYYVYYTKSYGPHVGFNTGDLNAKVFPWDYSEIWVATSEDGYVWEEKGVAVTRGEAGRYDDRSVFTVEVMKYDGKYYLVYQTVQHPYVNRSFENIAIAWSDNPLGPFQKSDEPILRPTGDGIWDTEEDNRFLVKKKGSFDSHKVHDPLLFHYRDKFYLYYKGEPMGEEIFMGGRETKWGVAIADSIEGPYIRSEYNPITNSGHETCLWQYKEGMAAFLRTDGVEKNTLQFAEDGINFQIMSVIKWGPEACGPYRPDEIITDDPLEGMKWGMSHSLGKPGCPYGCLVRFDINTKQRDIYAARKKYEEGHHHHHH” stands “soluble”.

In the case of “MGSDKIHHHHHHMKVTTISIDLAKNVFQVLGMDCHAKQVFNKRLNRTQLTEFMLQQPNCDVVFEACYSSHYWGRKFLAMGHNVKLIPAQHVTPFVRGSKNDNNDTMAIYEASFRPNIRFVPVKTEEQQEILMLHRIRERLVKEKTACTNQIRGVLVDFGICFAQGYKAFEVAIWDIINDASQRPIIKLMANDFWGEYQSVNTRLDRINTLIKKLIERDPNGKILLSIPGVGPIIASAFVASIGRGQAFNTAKELGVWLGLTPKQFASGHRSVNGSITKRGNGYLRKQLIHGARAVVSHASKKQDDLNLWIMQLRSRKSICSTVVATAHRLARLIWILLQKQVPYVPQYAANQGVNHGTC”, the “soluble on expression in E. coli” value is “not soluble”.

As for “MGSDKIHHHHHHMARHGKGPKTNKKKLAPEKERFIQCCADITLELTDSLTSGTTREINLNGLITKYSKKYKLKQQPRLTDIINSIPDQYKKYLLPKLKAKPVRTASGIAVVAVMCKPHRCPHIAYTGNICVYCPGGPDSDFEYSTQSYTGYEPTSMRAIRARYDPYEQARGRVEQLKQLGHSIDKVEYVLMGGTFMSLPKEYREDFIVKLHNALSGFNGNDIDEAILYSQQSLTKCVGITIETRPDYCTQTHLDDMLKYGCTRLEIGVQSLYEDVARDTNRGHTVRSVCETFAVSKDAGYKVVSHMMPDLPNVGMERDIEQFKEYFENPDFRTDGLKIYPTLVIRGTGLYELWKTGRYKSYSANALVDLVARILALVPPWTRIYRVQRDIPMPLVTSGVDNGNLRELALARMKDLGTTCRDVRTREVGIQEVHHKVQPDQVELIRRDYYANGGWETFLSYEDPKKDILIGLLRLRKASKKYTYRKEFTSQRTSIVRELHVYGSVVPLHSRDPRKFQHQGFGTLLMEEAERIAKEEHGSEKISVISGVGVRNYYGKLGYELDGPYMSKRI”, the “soluble on expression in E. coli” value was “not soluble”. Take “MGSDKIHHHHHHMTDQTRFFDEMTGGAPQARGPYQPYDAWFQGEDLDEIRKKSAEAEGFFRRTGITFNVYGQTEADERLIPFDVVPRIISGREWTRLTRGIEQRVRALNAFLYDIYHRQEILRAGRVPRELIDGNEAFLPQMMGVAPPGGIYTHIVGTDLVRTGEDEFFVLEDNARTPSGVSYMLENRETMLQMFPDLFSRIKVRPVQNYPANLRRSLAACAPNACTGECTVAVLTPGIHNSAYFEHAFLADQMGVELVEGHDLRVKDGRIAMRTTEGYKAIDVLYRRVDDDFLDPLNFNPDSMLGVPGIMDVYRAGGITIANAPGTGISDDKALYSYMPDIIEFYTGEKALLQNVPTHRCSEPEALKYVLDNLAELVVKEVHGSGGYGMLVGPAASKTEIEAFRKKLEANPSNYIAQPTLALSTCPILTEAGLAPRHVDLRPFVLMAPNKTTITPGGLTRVALAEGSLVVNSSQGGGTKDTWVLED”: the “soluble on expression in E. coli” value was “not soluble”.

The record behind these values is the DeepSol protein solubility set.
